This assay has as its target mouse CD4 (mouse) (UniProt P06332). Kind of assay: flow cytometry, primary C57BL/6 splenocytes ex vivo, siCy5 signal (FIG. 4B).
Chain of UniProt P06332 (P06332 27-457): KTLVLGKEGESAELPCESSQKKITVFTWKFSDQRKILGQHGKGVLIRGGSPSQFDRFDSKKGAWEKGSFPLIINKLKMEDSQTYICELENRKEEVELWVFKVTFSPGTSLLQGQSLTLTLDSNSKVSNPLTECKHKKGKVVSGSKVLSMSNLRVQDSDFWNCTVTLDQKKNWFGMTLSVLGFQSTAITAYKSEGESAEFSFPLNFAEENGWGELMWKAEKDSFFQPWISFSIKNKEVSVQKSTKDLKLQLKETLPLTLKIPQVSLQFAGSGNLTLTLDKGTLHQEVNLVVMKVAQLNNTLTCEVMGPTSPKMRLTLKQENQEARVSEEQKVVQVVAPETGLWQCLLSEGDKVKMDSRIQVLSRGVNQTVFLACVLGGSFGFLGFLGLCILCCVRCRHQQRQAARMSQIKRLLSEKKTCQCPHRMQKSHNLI

“isoLNPs: lipid nanoparticles coated with an isotype control mAb (antibody)” returned a percent of CD4+ cells that bind of 1%. Under “tLNPs: lipid nanoparticles (siRNA-encapsulating) conjugated to DTT-reduced anti-mouse CD4 monoclonal antibody (clone YTS.177)” stands 100%.

Source of the values: US20180142261A1.
